Laboratory results taken from patent US20170158757A1 (Bristol-Myers Squibb, published 2017).

T1: mouse IP-10 (mouse, UniProt P17515 22-98)
T1 sequence: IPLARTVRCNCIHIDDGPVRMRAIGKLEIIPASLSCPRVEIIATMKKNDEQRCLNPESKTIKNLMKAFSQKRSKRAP

T2: human IP-10 (human, UniProt P02778 22-98)
T2 construct: The HDX-MS text says 'recombinant full length human IP-10'; An IP10 dimer was placed in the crystal structure; also called huIP-10; CXCL10
T2 sequence: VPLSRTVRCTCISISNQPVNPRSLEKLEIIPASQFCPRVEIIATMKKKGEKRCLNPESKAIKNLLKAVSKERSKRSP

T3: cynomolgus monkey IP-10 (cynomolgus monkey, UniProt A0A2K5WKN6 22-98)
T3 construct: endogenous serum IP-10 in the monkey studies; also called cynoIP-10; cyno IP10
T3 sequence: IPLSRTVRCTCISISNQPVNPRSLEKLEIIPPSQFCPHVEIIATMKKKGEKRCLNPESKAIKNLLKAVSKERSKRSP

T4: human MIG (human, UniProt Q07325 23-125)
T4 construct: also called monokine induced by gamma interferon; CXCL9
T4 sequence: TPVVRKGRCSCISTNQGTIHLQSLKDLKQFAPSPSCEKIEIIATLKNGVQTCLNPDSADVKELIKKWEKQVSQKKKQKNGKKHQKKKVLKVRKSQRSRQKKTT

T5: human ITAC (human, UniProt O14625 22-94)
T5 construct: also called interferon-inducible T cell alpha chemoattractant; CXCL11
T5 sequence: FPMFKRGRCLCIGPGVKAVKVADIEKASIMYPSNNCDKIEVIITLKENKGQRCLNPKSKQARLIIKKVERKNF


Key:
mouse IP-10 = target: T1, mouse IP-10; test: Biacore-based binding studies
human IP-10 [1] = target: T2, human IP-10; test: Biacore-based binding studies
cynomolgus monkey IP-10 [2] = target: T3, cynomolgus monkey IP-10; test: in vivo Kd estimated by PK/PD modeling in cynomolgus monkeys
human IP-10 [3] = target: T2, human IP-10; test: whole cell binding assays with I125-IP-10 (CXCR3/300.19 and KM12SM cells)
human IP-10 [4] = target: T2, human IP-10; test: SPR (Biacore) at 37 C, IgG1, human IP-10
cynomolgus monkey IP-10 [5] = target: T3, cynomolgus monkey IP-10; test: in vivo Kd estimated by PK/PD modeling of free drug, free and total serum IP-10 in cynomolgus monkeys; in vivo Kd from PK/PD modeling in cynomolgus monkeys, not a direct binding assay
human IP-10 [6] = target: T2, human IP-10; test: Biacore SPR, huIP-10 (text: limit of detection with the Biacore is 90 pM)
human IP-10 [7] = target: T2, human IP-10; test: Biacore SPR, huIP-10
human IP-10 [8] = target: T2, human IP-10; test: cell-based or functional assay
cynomolgus monkey IP-10 [9] = target: T3, cynomolgus monkey IP-10; test: cell-based or functional assay
cynomolgus monkey IP-10 [10] = target: T3, cynomolgus monkey IP-10; test: Biacore SPR, cynoIP-10
human MIG [11] = target: T4, human MIG; test: Biacore SPR, MIG; Biacore, lot 3007: weak measured KD for MIG, about 17000 times weaker than for huIP-10 (0.01 nM)
human ITAC = target: T5, human ITAC; test: Biacore SPR
human IP-10 [12] = target: T2, human IP-10; test: Biacore kinetic analysis
cynomolgus monkey IP-10 [13] = target: T3, cynomolgus monkey IP-10; test: cell-based or functional assay; remark: listed apart in the source
human MIG [14] = target: T4, human MIG; test: Biacore SPR, MIG
human MIG [15] = target: T4, human MIG; test: Biacore SPR
human IP-10 [16] = target: T2, human IP-10; test: SPR (Biacore) at 37 C, IgG1, human IP-10 (second row for IP10.1g1f)

| Kd (human IP-10 [4]) [nM] | koff (human IP-10 [4]) [s⁻¹] | kon (human IP-10 [4]) [M⁻¹ s⁻¹] | koff (human IP-10 [7]) [s⁻¹] | kon (human IP-10 [7]) [M⁻¹ s⁻¹] | Kd (cynomolgus monkey IP-10 [10]) [nM] | binding result (human ITAC) | Binder | further results |
| --- | --- | --- | --- | --- | --- | --- | --- | --- |
| 0.17 | 4e-06 | 26200 | 1e-07 | 11600 | 0.2 | no binding | IP10.44 (antibody, human IgG1, kappa, V domains shown, Human IgG1 full-length antibody; also called BMS-986184; IP10.44-g1f) VH: QVQLVESGGGVVQPGRSLRLSCAASGFTFSEYGMHWVRQAPGKGLEWVAVIGFAGLIKGYADSVKGRFTISRDNSKNTLYLQMNSLRAEDTAVYYCAREGAGSNIYYYYGMDVWGQGTTVTVSS VL: not shown | binding result (mouse IP-10): no binding; fold improvement of KD against IP10.1 (human IP-10 [1]): ≥ 50 fold; fold more potent than IP10.1 (in vivo Kd) (cynomolgus monkey IP-10 [2]): ~150 fold; fold better potency than IP10.1 in blocking IP-10 binding to cells (human IP-10 [3]): ≥ 5 fold; Kd (cynomolgus monkey IP-10 [5]): 0.043 nM; Kd (human IP-10 [6]): 0.01 nM; fold better potency than IP10.1, IL-6 secretion by hPBMCs (human IP-10 [8]): ~6 fold; fold greater potency relative to IP10.1, IL-12p40 secretion by hPBMCs (human IP-10 [8]): 4 fold; IC50 of free serum IP-10 suppression against free drug concentration in cynomolgus monkeys (cynomolgus monkey IP-10 [9]): 0.223 nM; Kd (human MIG [11]): 168 nM; estimated t1/2 (half-life of IP-10 association) (human IP-10 [12]): > 100 h; IC50 (read off the curve) (cynomolgus monkey IP-10 [13]): ~0.3 nM |
| 0.12 | 2e-06 | 13500 | 1e-06 | 9600 | 0.19 | no binding | IP10.46 (antibody, human IgG1, kappa, V domains shown, IgG1 full-length variant of IP10.1; also called IP10.46-g1f) VH: QVQLVESGGGVVQPGRSLRLSCTASGFTFSQYGMHWVRQAPGKGLEWVAVISYGGDIKYYADSVKGRFTISRDNSKNTLYLQMNSLRAEDTAVYYCAREGEGSNIYYYYGMDVWGQGTTVTVSS VL: not shown | Kd (human MIG [14]): 77.5 nM; Kd (human IP-10 [7]): 0.11 nM |
| 1.64 | 1.7e-05 | 9300 |  |  |  |  | IP10.43 (antibody, human IgG1, kappa, V domains shown, IgG1 full-length variant of IP10.1) VH: QVQLVESGGGVVQPGRSLRLSCTASGFTFSSYGMHWVRQAPGKGLEWVAVIDFVGDTKYYTDSVKGRFTISRDNSKNTLYLQMNSLRAEDTAVYYCAREGAGSNIYYYYGMDVWGQGTTVTVSS VL: not shown |  |
|  |  |  | 5e-07 | 13000 | 1.43 | no binding | IP10.52 (antibody, human IgG1, kappa, V domains shown, IgG1 full-length variant of IP10.1; also called IP10.52-g1f) VH: QVQLVESGGGVVQPGRSLRLSCTASGFTFSDYGMHWVRQAPGKGLEWVAVIGYGGLIKGYADSVKGRFTISRDNSKNTLYLQMNSLRAEDTAVYYCAREGAGSSVYYYYGMDVWGQGTTVTVSS VL: not shown | Kd (human MIG [14]): 73.5 nM; Kd (human IP-10 [7]): 0.04 nM |
| 0.25 | 4e-06 | 15400 |  |  |  |  | IP10.54 (antibody, human IgG1, kappa, V domains shown, IgG1 full-length variant of IP10.1; also called IP10.54-g1f) VH: QVQLVESGGGVVQPGRSLRLSCTASGFTFSQYGMHWVRQAPGKGLEWVAVISYGGDIKYYADSVKGRFTISRDNSKNTLYLEMNSLRAEDTAIYYCAREGEGSNIYYYYGMDVWGQGTTVTVSS VL: not shown |  |
|  |  |  |  |  | 0.22 | no binding | IP10.53 (antibody, human IgG1, kappa, V domains shown, IgG1 full-length variant of IP10.1; also called IP10.53-g1f) VH: QVQLVESGGGVVQPGRSLRLSCAASGFTFSDYGMHWVRQAPGKGLEWVAVISHNGAIKGYADSVKGRFTISRDNSKNTLYLQMNSLRAEDTAVYYCAREGDGSNIYYYYGMDVWGQGTTVTVSS VL: not shown | Kd (human MIG [14]): 54.3 nM |
| 0.34 | 5e-06 | 14100 |  |  |  |  | IP10.48 (antibody, human IgG1, kappa, V domains shown, IgG1 full-length variant of IP10.1; also called IP10.48-g1f) VH: QVQLVESGGGVVQPGRSLRLSCAASGFTFSNYGMHWVRQAPGKGLEWVAVIDFAGINKYYADSVKGRFTISRDNSKNTLYLQMNSLRAEDTAVYYCAREGEGSNIYFFYGMDVWGQGTTVTVSS VL: not shown |  |
|  |  |  |  |  | 4.74 | no binding | IP10.45 (antibody, human IgG1, kappa, V domains shown, IgG1 full-length variant of IP10.1; also called IP10.45-g1f) VH: QVQLVESGGGVVQPGRSLRLSCTASGFTFSKHGMHWVRQAPGKGLEWVAVIGFAGVIKSYADSVKGRFTISRDNSKNTLYLQMNSLRAEDTAVYYCAREGEGSNIYFYYGMDVWGQGTTVTVSS VL: not shown | binding result (human MIG [15]): no binding |
| 0.56 | 1.4e-05 | 24000 |  |  |  |  | IP10.47 (antibody, human IgG1, kappa, V domains shown, IgG1 full-length variant of IP10.1; also called IP10.47-g1f) VH: QVQLVESGGGVVQPGRSLRLSCAASGFTFSTHGMHWVRQAPGKGLEWVAVIGFGGLIKSYADSVKGRFTISRDNSKNTLYLQMNSLRAEDTAVYYCAREGDGSSLYFYYGMDVWGQGTTVTVSS VL: not shown |  |
| 0.96 |  |  |  |  |  |  | IP10.51 (antibody, human IgG1, kappa, V domains shown, IgG1 full-length variant of IP10.1; also called IP10.51-g1f) VH: QVQLVESGGGVVQPGRSLRLSCTASGFTFSDYGMHWVRQAPGKGLEWVAVIGYGGLIKGYADSVKGRFTISRDNSKNTLYLQMNSLRAEDTAVYYCAREGAGSSIYYYYGMDVWGQGTTVTVSS VL: not shown |  |
| 0.41 | 6e-06 | 14700 |  |  |  |  | IP10.49 (antibody, human IgG1, kappa, V domains shown, IgG1 full-length variant of IP10.1; also called IP10.49-g1f) VH: QVQLVESGGGVVQPGRSLRLSCTASGFTFSQSGMHWVRQAPGKGLEWVAVIGFGGLIKSYADSVKGRFTISRDNSKNTLYLQMNSLRAEDTAVYYCAREGDGSGIYYYYGMDVWGQGTTVTVSS VL: not shown |  |
| 4.18 | 0.000151 | 36200 | 6.8e-05 | 8000 | 14.9 | no binding | IP10.1 (antibody, human IgG1, kappa, V domains shown, Human IgG1 (g1f) full-length antibody; Parent antibody of all variants; also called 6A5; antibody 6A5) VH: QMQLVESGGGVVQPGRSLRLSCTASGFTFSNNGMHWVRQAPGKGLEWVAVIWFDGMNKFYVDSVKGRFTISRDNSKNTLYLEMNSLRAEDTAIYYCAREGDGSGIYYYYGMDVWGQGTTVTVSS VL: not shown | binding result (mouse IP-10): no binding; Kd (human IP-10 [1]): ~5 nM; Kd (cynomolgus monkey IP-10 [5]): 6.5 nM; Kd (human IP-10 [16]): 6.27 nM; koff (human IP-10 [16]): 0.000138 s⁻¹; kon (human IP-10 [16]): 22000 M⁻¹ s⁻¹; Kd (human IP-10 [7]): 8.53 nM; binding result (human MIG [15]): no binding; estimated t1/2 (half-life of IP-10 association) (human IP-10 [12]): ~3 h |
